Laboratory results as given in publication PMC10953581, “SHMT2 Mediates Small‐Molecule‐Induced Alleviation of Alzheimer Pathology Via the 5′UTR‐dependent ADAM10 Translation Initiation”.

T1: human SUMO-SHMT2 (Homo sapiens, UniProt P34897 1-504)
T1 sequence: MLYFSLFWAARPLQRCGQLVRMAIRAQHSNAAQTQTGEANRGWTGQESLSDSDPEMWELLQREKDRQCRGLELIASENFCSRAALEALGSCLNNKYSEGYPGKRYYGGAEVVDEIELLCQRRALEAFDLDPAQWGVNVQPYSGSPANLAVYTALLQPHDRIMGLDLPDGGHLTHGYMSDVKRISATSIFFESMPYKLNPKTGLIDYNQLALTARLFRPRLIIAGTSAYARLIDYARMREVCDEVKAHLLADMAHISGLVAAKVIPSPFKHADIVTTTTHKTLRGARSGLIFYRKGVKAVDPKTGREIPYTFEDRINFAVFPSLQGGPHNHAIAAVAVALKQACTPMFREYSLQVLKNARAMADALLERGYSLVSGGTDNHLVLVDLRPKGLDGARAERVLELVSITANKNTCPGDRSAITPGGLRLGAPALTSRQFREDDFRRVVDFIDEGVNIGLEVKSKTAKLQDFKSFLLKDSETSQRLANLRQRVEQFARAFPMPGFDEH

T2: murine SUMO-SHMT2 (Mus musculus, UniProt Q9CZN7 1-504)
T2 sequence: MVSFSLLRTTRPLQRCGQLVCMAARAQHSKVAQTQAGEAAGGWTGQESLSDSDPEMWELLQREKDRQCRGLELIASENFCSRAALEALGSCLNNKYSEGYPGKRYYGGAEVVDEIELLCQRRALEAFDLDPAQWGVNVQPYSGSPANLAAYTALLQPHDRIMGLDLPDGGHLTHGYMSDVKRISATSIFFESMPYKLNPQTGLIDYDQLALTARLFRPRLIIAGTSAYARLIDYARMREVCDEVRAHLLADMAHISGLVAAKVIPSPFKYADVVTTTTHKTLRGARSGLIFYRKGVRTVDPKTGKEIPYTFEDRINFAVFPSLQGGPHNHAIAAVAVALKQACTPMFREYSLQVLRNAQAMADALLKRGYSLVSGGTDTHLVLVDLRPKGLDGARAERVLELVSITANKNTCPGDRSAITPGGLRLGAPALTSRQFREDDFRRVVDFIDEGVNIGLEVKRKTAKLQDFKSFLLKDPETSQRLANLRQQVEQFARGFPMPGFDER

B1: MUT156-175 (ssRNA)
RNA: UGAGUUUCGAAGUAUUUGGG
B2: 201-222 (ssRNA)
RNA: AGGAAAGCGGGGAAAGGAGGAA
B3: 69-90 (ssRNA)
RNA: GGACGGGUAGGGGCGGGAGGUA
B4: MUT176-200 (ssRNA)
RNA: GAGAGAAUAUUUAACGAGCAAGGGA
B5: 156-175 (ssRNA)
RNA: UGAGUUUCGAAGGAGGGGGG
B6: MUT201-222 (ssRNA)
RNA: AGUAAAUCGGGUAAAUGAGGAA
B7: 176-200 (ssRNA)
RNA: GAGAGAAGAGGGAACGAGCAAGGGA
B8: MUT69-90 (ssRNA)
RNA: GGACGGGUAGGGGCUUUAUGUA
B9: MUT223-244 (ssRNA)
RNA: GGAAACGAACUAUUUGUAUUUA
B10: 223-244 (ssRNA)
RNA: GGAAACGAACGAGGGGGAGGGA
B11: mouse 58-86 (ssRNA)
RNA: GUUUUGGCGGAGCAGGGCGCGCGGCUGGG
B12: mouse 1-29 (ssRNA)
RNA: GAGGGCAGGGAAGCGGGGAAGGGAGGAAG
B13: mouse 30-57 (ssRNA)
RNA: GAAGAGGCCGAGGGGGAGGGAGGGCCCU

target: T1, human SUMO-SHMT2; experiment: EMSA; RNA EMSA (LightShift kit): 10 pmol biotin-RNA, 6 ug protein, 1X EMSA binding buffer, 5% glycerol, 0.1 mg/mL tRNA, 20 uL, 30 min, room temperature; salt and pH not stated; conditions: protein: recombinant; tags: SUMO; chain copies: 4; label: 5' biotin

Row | Binder | binding result
1 | B1 | no binding
2 | B2 | binds
3 | B3 | binds
4 | B4 | no binding
5 | B5 | binds
6 | B6 | no binding
7 | B7 | binds
8 | B8 | no binding
9 | B9 | no binding
10 | B10 | binds

target: T2, murine SUMO-SHMT2; experiment: as above; conditions: protein: recombinant; tags: SUMO; label: 5' biotin

Row | Binder | binding result
11 | B11 | no binding
12 | B12 | binds
13 | B13 | binds
